From IntAct's records for PubMed 21203436

B1: Protein MKS1 (Arabidopsis thaliana (Mouse-ear cress)), Q8LGD5 (parent)
chain: MDPSEYFAGGNPSDQQNQKRQLQICGPRPSPLSVHKDSHKIKKPPKHPAPPPNRDQPPPYIPREPVVIYAVSPKVVHATASEFMNVVQRLTGISSGVFLESGGGGDVSPAARLASTENASPRGGKEPAARDETVEINTAMEEAAEFGGYAPGILSPSPALLPTASTGIFSPMYHQGGMFSPAIPLGLFSPAGFMSPFRSPGFTSLVASPTFADFFSHIWDQD
partner: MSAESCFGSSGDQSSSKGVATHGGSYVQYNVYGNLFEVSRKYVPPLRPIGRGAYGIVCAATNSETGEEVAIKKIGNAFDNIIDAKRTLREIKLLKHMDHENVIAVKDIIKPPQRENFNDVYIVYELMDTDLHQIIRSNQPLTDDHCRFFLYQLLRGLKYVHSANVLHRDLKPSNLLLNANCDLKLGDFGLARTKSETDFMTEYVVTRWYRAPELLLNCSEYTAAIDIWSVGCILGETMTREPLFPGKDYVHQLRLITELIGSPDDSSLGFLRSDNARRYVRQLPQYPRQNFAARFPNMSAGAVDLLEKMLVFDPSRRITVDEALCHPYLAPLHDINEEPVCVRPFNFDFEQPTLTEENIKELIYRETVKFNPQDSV

Variants of: B1
Settings: with mpk4_arath MPK4, Q39024

Effect of a mutation on the interaction, disrupting interaction:
MDPSEYFAGGNPSDQQNQKRQLQICGPRASPLSVHKDSHKIKKPPKHPAPPPNRDQPPPYIPREPVVIYAVSPKVVHATASEFMNVVQRLTGISSGVFLESGGGGDVSPAARLASTENASPRGGKEPAARDETVEINTAMEEAAEFGGYAPGILSPSPALLPTASTGIFSPMYHQGGMFSPAIPLGLFSPAGFMSPFRSPGFTSLVASPTFADFFSHIWDQD [P29A]
MDPSEYFAGGNPSDQQNQKRQLQICGPRPSPLSVHKDAHKIKKPPKHPAPPPNRDQPPPYIPREPVVIYAVSPKVVHATASEFMNVVQRLTGISSGVFLESGGGGDVSPAARLASTENASPRGGKEPAARDETVEINTAMEEAAEFGGYAPGILSPSPALLPTASTGIFSPMYHQGGMFSPAIPLGLFSPAGFMSPFRSPGFTSLVASPTFADFFSHIWDQD [S38A]
MDPSEYFAGGNPSDQQNQARQLQICGPRPSPLSVHKDSHKIKKPPKHPAPPPNRDQPPPYIPREPVVIYAVSPKVVHATASEFMNVVQRLTGISSGVFLESGGGGDVSPAARLASTENASPRGGKEPAARDETVEINTAMEEAAEFGGYAPGILSPSPALLPTASTGIFSPMYHQGGMFSPAIPLGLFSPAGFMSPFRSPGFTSLVASPTFADFFSHIWDQD [K19A]
MDPSEYFAGGNPSDQQNQKRQLQICGPRPSPLSVHKDSHAIKKPPKHPAPPPNRDQPPPYIPREPVVIYAVSPKVVHATASEFMNVVQRLTGISSGVFLESGGGGDVSPAARLASTENASPRGGKEPAARDETVEINTAMEEAAEFGGYAPGILSPSPALLPTASTGIFSPMYHQGGMFSPAIPLGLFSPAGFMSPFRSPGFTSLVASPTFADFFSHIWDQD [K40A]
MDPSEYFAGGNPSDQQNQKRQLQICGPRPSPASVHKDSHKIKKPPKHPAPPPNRDQPPPYIPREPVVIYAVSPKVVHATASEFMNVVQRLTGISSGVFLESGGGGDVSPAARLASTENASPRGGKEPAARDETVEINTAMEEAAEFGGYAPGILSPSPALLPTASTGIFSPMYHQGGMFSPAIPLGLFSPAGFMSPFRSPGFTSLVASPTFADFFSHIWDQD [L32A]
MDPSEYFAGGNPSDQQNQKRQLQICGPAPSPLSVHKDSHKIKKPPKHPAPPPNRDQPPPYIPREPVVIYAVSPKVVHATASEFMNVVQRLTGISSGVFLESGGGGDVSPAARLASTENASPRGGKEPAARDETVEINTAMEEAAEFGGYAPGILSPSPALLPTASTGIFSPMYHQGGMFSPAIPLGLFSPAGFMSPFRSPGFTSLVASPTFADFFSHIWDQD [R28A]
